This passage reports binding results from paper PMC12502779.

The target of the data set is T1, 6xHis-OxyR (Salmonella enterica serovar Typhi ISP1820) (UniProt Q8XF66).
T1 sequence: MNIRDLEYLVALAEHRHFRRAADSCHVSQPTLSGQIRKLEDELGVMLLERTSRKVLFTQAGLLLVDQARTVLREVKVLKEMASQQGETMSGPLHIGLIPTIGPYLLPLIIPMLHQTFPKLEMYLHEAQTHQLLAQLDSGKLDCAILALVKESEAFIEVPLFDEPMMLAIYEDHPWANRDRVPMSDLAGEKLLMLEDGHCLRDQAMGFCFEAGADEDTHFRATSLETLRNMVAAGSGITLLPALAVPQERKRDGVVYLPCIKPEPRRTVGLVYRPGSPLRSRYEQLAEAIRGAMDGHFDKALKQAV
As to the kind of experiment: EMSA. Conditions: EMSA with 10 nM probe, 5% acrylamide gel, RedSafe stain; buffer, salt, pH and temperature not given (as previously described, ref 27). Background: A gel shift assay detects complexes by their altered migration in electrophoresis.

As to “GAAATCGGGCGTGGCATTCTGATTACTCAACAGTAATTCACGAACCCTTTTCTCGATCTCTTTCGCTGTCGCCGGGTTCTCTTTCAGCCAGGTAGTCGCGTTCGCTTTACCCTGGCCAATCTTCT (double strand) [recA]”, the binding result is “no binding”.
